# Results from publication PMC4403819.
# Target: T1, OmpR-His6 non-phosphorylated (Yersinia enterocolitica Ye9 (O:9)?) (UniProt P74982)
# T1 sequence: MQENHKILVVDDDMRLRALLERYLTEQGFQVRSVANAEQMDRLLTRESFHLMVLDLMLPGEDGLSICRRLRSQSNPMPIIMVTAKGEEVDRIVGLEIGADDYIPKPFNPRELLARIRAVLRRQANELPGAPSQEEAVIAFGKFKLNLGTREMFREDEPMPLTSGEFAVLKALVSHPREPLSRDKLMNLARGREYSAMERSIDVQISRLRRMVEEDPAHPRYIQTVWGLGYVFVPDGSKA
# Test: EMSA
# Conditions: Binding buffer, pH and temperature not given ([…]
sequence,measurement,value
TGGAATTCATTGCAGCCAGAGGCATTACCCCTCTGTTTTTGCTCATAGATAAACCTCAAGTGTCCGATTTTTAATTTAATTCAATGGATCACAAGCTTTAAAACCCATTGCTGCGTAAATTATATGTGCGTGCTATGGTACATACATTCGTGAATGTATGTAAATCGCACCCCCTCGAAAAAACAACGCTATGGCACGAAAAACCAAACAGCAAGGTACCCA (double strand) [acrR promoter fragment p222],binding,binds more weakly
